The term EC50 denotes the midpoint of the concentration-response curve. Usually Kd stands for the concentration at which binding is half-saturated. The koff is a measure of how fast the partners let go of each other. The term kon denotes the second-order rate constant of association.

In experiment [1] the target is T1, human αKlotho extracellular segment protein (human, UniProt Q9UEF7 34-981).
T1 construct: extracellular domain
T1 sequence (looked up): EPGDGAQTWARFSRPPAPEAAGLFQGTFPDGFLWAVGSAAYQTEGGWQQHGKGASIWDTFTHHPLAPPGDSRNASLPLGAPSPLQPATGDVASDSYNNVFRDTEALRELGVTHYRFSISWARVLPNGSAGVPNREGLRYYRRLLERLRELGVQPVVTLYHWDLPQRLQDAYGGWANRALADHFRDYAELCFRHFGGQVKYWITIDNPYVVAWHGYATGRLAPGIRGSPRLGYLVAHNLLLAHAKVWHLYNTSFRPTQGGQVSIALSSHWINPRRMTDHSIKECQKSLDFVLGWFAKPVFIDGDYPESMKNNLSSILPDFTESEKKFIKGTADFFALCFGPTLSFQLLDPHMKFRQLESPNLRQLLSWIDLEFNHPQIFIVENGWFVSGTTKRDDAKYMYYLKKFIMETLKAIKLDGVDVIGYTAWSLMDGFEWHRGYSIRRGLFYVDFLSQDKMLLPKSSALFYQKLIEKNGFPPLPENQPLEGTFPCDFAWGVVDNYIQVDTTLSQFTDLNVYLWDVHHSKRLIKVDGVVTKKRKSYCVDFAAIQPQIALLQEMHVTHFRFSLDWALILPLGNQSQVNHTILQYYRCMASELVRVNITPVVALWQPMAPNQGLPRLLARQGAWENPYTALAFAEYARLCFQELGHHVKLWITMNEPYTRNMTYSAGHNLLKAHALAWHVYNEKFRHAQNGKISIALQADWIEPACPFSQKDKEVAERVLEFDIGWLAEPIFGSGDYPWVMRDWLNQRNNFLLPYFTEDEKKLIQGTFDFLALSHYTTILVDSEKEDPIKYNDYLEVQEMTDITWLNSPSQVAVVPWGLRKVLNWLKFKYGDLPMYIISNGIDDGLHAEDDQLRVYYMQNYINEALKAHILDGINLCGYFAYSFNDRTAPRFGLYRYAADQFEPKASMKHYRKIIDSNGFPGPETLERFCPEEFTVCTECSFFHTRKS
The experiment in a line: ELISA; extracellular segment protein on nickel-coated plate, antibody titrated, anti-human IgG Fab-HRP. The protocol:
In this Example, the binding of some antibodies in Example 1 to human βKlotho, human αKlotho, and mouse βKlotho was detected using an ELISA assay as described below. A solution of human βKlotho (R&D systems), human αKlotho (R&D systems), or mouse βKlotho (R&D systems) extracellular segment protein at a specified concentration was added to a nickel-coated 96-well plate (Pierce) and the plate was incubated overnight at room temperature. The next day, the plate was blocked with PBS/1% BSA, and then antibodies at various concentrations were added to the wells. After incubating the plate for 1.5 hours at room temperature, a HRP-labeled anti-human IgG Fab secondary antibody was added to the wells and the plate was incubated for 30 minutes at room temperature. After the substrate was added and reacted at room temperature for 15 minutes, the reaction-stopping solution was added. OD₄₅₀ values were read. Exemplary data of antibodies' binding to human βKlotho, human αKlotho, and mouse βKlotho in the ELISA assay are as follows.

Experiment [2] concerns the target T2, cynomolgus monkey FGFR1c/βKlotho receptor (cynomolgus monkey, UniProt A0A2K5WB58 1-1044). The experiment in a line: cell-based or functional assay.
Experiment [3] addresses T2, cynomolgus monkey FGFR1c/βKlotho …. Kind of experiment: cell-based or functional assay. The source holds these as a separate data set.
In experiment [4] the target is human FGFR4/βKlotho receptor (human, UniProt P22455 22-802). The experiment in a line: cell-based or functional assay.
The target in experiment [5] is T2, cynomolgus monkey FGFR1c/βKlotho …. The experiment in a line: cell-based or functional assay. This is another data set of the same source.
Experiment [6] deals with T3, human βKlotho extracellular segment protein (human, UniProt Q86Z14 53-996).
T3 construct: Captured by nickel plate or anti-His antibody, so His-tagged; also called human βKlotho extracellular protein
T3 sequence: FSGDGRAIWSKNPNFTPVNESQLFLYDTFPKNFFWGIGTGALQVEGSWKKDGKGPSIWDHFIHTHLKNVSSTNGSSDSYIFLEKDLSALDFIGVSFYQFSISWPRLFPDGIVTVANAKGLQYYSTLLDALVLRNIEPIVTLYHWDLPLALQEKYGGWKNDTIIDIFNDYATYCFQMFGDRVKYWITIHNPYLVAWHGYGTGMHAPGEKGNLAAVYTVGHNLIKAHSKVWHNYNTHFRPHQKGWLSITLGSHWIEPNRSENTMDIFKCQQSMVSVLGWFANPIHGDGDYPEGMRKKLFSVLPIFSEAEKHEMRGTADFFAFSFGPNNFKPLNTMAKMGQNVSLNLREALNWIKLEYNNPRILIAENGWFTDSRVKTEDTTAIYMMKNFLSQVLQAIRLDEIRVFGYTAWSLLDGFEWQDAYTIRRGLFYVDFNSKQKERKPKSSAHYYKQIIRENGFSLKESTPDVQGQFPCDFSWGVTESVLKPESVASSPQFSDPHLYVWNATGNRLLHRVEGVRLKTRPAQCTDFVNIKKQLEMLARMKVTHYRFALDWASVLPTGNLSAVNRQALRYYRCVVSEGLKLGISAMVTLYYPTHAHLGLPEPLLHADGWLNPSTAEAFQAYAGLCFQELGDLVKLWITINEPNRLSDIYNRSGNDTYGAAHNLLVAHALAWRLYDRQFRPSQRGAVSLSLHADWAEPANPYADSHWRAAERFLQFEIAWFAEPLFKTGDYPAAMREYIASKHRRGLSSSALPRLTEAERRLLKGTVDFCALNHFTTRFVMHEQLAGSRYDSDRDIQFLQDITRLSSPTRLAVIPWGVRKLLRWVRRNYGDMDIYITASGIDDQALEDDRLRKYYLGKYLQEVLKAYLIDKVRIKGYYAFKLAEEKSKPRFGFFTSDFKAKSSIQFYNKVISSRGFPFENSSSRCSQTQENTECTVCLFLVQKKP
Kind of experiment: Gator BLI; antibody captured on Protein A probe, human βKlotho ECD 400 nM-50 nM in solution. The procedure: The antibodies described above were tested for affinity using Gator (Gator bio). Briefly, an antibody was first captured using a probe coated with Protein A (Gator bio). After the baseline was monitored for 60 seconds, the antibody-to-the antigen binding was determined with the human βKlotho extracellular segment protein described above at varying concentrations (400 nM-50 nM). Then, the dissociation was detected in a K buffer (Gator bio). Meanwhile, the function of an antibody to activate the human or cynomolgus monkey FGFR1c/βKlotho receptor was detected using the reporter-based assay described in Example 2.

Residue numbers refer to the chain shown, from its start. Where two headings read alike, the source gives them in different places. Where only a bound is given, the exact number is not on record here.

T2 sequence (A0A2K5WB58 entry or part of it): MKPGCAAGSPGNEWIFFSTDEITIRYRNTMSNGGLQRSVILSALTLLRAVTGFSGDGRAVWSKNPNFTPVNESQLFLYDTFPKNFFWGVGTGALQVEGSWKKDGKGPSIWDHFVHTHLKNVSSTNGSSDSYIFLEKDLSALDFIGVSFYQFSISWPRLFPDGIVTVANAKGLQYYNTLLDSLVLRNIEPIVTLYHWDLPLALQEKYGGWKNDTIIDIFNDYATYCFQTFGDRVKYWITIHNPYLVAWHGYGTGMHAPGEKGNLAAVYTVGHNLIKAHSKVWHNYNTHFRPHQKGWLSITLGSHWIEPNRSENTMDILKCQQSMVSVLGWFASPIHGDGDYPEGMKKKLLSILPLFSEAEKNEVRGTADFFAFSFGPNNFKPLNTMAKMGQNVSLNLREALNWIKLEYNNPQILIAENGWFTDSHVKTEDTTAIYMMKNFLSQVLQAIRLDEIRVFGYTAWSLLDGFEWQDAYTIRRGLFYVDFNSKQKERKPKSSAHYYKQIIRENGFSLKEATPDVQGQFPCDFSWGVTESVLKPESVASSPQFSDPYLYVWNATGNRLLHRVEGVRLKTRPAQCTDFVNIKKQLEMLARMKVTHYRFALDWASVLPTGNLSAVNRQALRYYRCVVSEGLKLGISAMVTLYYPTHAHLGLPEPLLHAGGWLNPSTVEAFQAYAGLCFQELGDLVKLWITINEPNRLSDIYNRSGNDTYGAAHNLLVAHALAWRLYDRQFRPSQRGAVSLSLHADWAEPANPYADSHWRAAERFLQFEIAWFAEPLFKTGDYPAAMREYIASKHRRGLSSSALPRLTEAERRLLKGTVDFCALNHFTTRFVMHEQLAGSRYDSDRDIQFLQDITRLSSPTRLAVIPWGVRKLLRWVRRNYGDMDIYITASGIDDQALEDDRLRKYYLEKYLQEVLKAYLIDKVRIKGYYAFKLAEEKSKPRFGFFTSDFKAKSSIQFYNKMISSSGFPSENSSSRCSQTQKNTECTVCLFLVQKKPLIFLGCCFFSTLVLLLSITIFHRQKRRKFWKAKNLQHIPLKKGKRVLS
Sequence of human FGFR4/βKlotho receptor (P22455 22-802, chain 1 of 2): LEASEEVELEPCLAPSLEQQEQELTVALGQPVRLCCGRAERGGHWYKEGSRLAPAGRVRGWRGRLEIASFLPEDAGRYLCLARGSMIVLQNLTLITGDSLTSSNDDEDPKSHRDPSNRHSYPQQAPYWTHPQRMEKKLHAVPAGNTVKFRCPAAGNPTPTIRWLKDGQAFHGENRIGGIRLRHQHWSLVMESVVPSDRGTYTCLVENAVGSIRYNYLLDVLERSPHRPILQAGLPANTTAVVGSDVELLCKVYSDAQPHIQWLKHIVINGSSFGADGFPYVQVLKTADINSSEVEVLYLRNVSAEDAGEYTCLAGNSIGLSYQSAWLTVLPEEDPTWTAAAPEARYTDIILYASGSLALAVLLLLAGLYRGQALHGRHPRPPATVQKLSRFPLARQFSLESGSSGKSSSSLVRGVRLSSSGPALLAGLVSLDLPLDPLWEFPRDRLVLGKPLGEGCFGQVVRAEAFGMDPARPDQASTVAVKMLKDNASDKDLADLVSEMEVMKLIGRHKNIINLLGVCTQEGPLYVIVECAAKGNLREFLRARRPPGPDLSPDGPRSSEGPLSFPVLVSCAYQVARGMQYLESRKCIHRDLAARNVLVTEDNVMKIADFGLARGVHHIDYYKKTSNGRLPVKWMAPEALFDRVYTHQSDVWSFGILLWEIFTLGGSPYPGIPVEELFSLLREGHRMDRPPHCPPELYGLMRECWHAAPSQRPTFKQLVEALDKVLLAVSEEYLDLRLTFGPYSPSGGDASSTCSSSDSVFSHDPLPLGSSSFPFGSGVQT
Sequence of human FGFR4/βKlotho receptor (chain, as listed by the source, chain 2 of 2): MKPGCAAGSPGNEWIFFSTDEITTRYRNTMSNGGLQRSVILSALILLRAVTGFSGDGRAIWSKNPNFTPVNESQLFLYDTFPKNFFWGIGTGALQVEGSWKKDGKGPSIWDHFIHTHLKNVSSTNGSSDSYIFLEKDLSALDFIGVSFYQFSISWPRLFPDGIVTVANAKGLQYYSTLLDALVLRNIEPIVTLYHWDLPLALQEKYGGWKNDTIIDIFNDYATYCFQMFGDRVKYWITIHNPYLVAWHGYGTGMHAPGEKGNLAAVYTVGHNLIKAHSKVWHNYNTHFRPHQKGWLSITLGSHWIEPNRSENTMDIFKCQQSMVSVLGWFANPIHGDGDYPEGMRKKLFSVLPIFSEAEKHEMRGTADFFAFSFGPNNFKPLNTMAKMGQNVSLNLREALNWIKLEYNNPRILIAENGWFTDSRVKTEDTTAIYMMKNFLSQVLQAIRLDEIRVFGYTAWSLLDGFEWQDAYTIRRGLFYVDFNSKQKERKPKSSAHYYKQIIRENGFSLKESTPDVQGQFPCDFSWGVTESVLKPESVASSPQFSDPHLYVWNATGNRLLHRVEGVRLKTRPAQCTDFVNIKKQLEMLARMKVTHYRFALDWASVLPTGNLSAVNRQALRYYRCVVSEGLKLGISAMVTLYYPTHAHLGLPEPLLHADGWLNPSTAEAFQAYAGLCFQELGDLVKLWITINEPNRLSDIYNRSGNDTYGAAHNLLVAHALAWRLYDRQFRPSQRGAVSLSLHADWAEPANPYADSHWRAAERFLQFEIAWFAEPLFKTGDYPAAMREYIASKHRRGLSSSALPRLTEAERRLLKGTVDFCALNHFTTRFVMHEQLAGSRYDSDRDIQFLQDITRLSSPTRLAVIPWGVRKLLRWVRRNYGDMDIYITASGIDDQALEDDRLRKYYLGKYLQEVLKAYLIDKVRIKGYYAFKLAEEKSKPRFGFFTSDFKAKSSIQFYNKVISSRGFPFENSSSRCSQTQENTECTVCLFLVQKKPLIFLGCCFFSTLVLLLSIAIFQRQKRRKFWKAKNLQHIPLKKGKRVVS

B1: CB-8 (antibody, V domains shown)
VH: EVQLVQSGAEVKKPGASVKVSCKASGYTFTSYGISWVRQAPGQGLEWMGWISAYNGNTNYAQKLQGRVTMTTDTSTSTAYMELRSLRSDDTAVYYCATLYGSGSLYYWGQGTLVTVSS
VL: DIVMTQSPSSLSAPVGDRVTITCQASQDIRNYINWFQQKPGKAPKLLIYAASSLQSGVPSRFSGSGSGTDFTLTISSLQPEDFATYYCQQSYSTPQWTFGQGTKVEIK
B1 displayed an EC50 in experiment [1] of more than 100 nM. Further, the “EC50 for antibody-induced cell activation, as determined by the reporter-based assay” value (from here on “EC50 … by the reporter-based assay”) in experiment [2] is 2.86 nM. Besides, the “EC50, luciferase reporter-based assay (receptor activation)” value in experiment [3] is 4.89 nM.

B2: CB-8-42 (antibody, human IgG1, kappa, V domains shown)
VH: B1 VH with N55S, Y100L, G101P
VL: DIVMTQSPSSLSAPVGDRVTITCQASQDIRNYINWFQQKPGKAPKLLIYAASYLQSGVPSRFSGSGSGTDFTLTISSLQPEDFATYYCQQSYSTPQWTFGQGTKVEIKR
Regarding B2, the “EC50, luciferase reporter-based assay (receptor activation)” value in experiment [4] is more than 100 nM; in experiment [5], 0.17 nM.

B3: CB-8-37 (antibody, human IgG1, V domains shown)
VH: B1 VH with T28A, N55S
VL: B1 VL with S53F
As to B3, the “EC50 … by the reporter-based assay” value in experiment [2] was determined as 0.54 nM.

B4: CB-8-40 (antibody, human IgG1, V domains shown)
VH: B1 VH with N55S
VL: B1 VL with S53Y
Consider B4, for which the “EC50 … by the reporter-based assay” value in experiment [2] turned out to be 0.49 nM.

B5: CB-8-24 (antibody, V domains shown)
VH: B1 VH with Y100L, G101P
VL: B1 VL
Take B5: the “EC50 … by the reporter-based assay” value in experiment [2] was determined as 0.15 nM.

B6: CB-8-23 (antibody, human IgG1, V domains shown)
VH: B1 VH with Y32G, N57R
VL: B1 VL with S53F
Regarding B6, in experiment [6], the affinity, expressed as Kd, was 7.08 nM; the koff came to 0.000173 s⁻¹; the kon is 24500 M⁻¹ s⁻¹. In experiment [2], the “EC50 … by the reporter-based assay” value came out at 0.55 nM.

B7: CB-8-26 (antibody, human IgG1, V domains shown)
VH: B1 VH with T30K, N57R
VL: B1 VL with S53G
As for B7, in experiment [2], the “EC50 … by the reporter-based assay” value was 0.71 nM.

B8: CB-8-41 (antibody, human IgG1, V domains shown)
VH: B1 VH with T28L, N55T
VL: B1 VL with S53H
Consider B8, for which the “EC50 … by the reporter-based assay” value in experiment [2] was found to be 1.57 nM.

B9: CB-8-14 (antibody, human IgG1, V domains shown)
VH: B1 VH with T30R, N55T
VL: B1 VL with L54R
As to B9, in experiment [2], the “EC50 … by the reporter-based assay” value stood at 1.08 nM.

B10: CB-8-13 (antibody, human IgG1, V domains shown)
VH: B1 VH with T28R, N57R
VL: B1 VL with S53R
Consider B10, for which, in experiment [2], the “EC50 … by the reporter-based assay” value is 0.88 nM.

Values taken from patent US20250066509A1 (SHANGHAI JMT BIO TECHNOLOGY, published 2025).
